assay: yeast display, Sf9 membrane polyspecificity reagent, FACS + sequencing; frameworks hold sequencing errors
Procedure, shortened: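 Nanobodies from a synthetic yeast display library (Saccharomyces cerevisiae BJ5465), induced 36–48 hours with galactose, were stained 1 hour at 4 °C with 10% biotinylated, detergent-solubilized Sf9 membrane reagent, enriched on streptavidin microbeads, then FACS-sorted. Anti-HA (expression) and streptavidin (reagent binding) fluorescence set low and high (top ~1%) gates. Polyreactivity labels come from the gate of origin. Genes were colony-PCR amplified, MiSeq 2 × 250 sequenced and filtered by CDR length.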

Sequence | polyreactivity (PSR sort gate)
QVQLVESGGGLVQAGGSLRLSCAASGRTFYTYAMGWYRQAPGKDREFVAVISGRGARTYYADSVKGRFTISRDNAKNTVYLQMNSLKPEDTAVYYCAAVPPRKDYQHMDYWGQGTQVTVSS | low polyreactivity
QVQLVESGGGLVQAGGRLRLSCAASGSTFSYYAMGWYRQAPGKERELVAAISSRGSSTYYADSVKGRFTISRDNAKNTVYLQMNSLKPQATAVYYCAAVRYSPTKFNYWGQGTQVTVSS | high polyreactivity
QVQLVESGGGLVQAGGSLRLSCAASGIISSVYAMGWSRQAPGKERELVAAISGSGGSTYYADSVKGRFTISRDNAKNTVYLQMNSLKPEDTAVYYCAKGYQYQGNSYGYWGQGTQVTVSS | low polyreactivity
QVQLVESGGGLVQAGGSLRLSCAASGRIFSSKAMGWYRQAPGKERELVAAISWIVGRTYYADSVKGRFTISRDNAKNTVYLQMNSLIPEATAVYYCAKGSYYVRNRGWGYDYWGQGTQVTVSS | high polyreactivity
QVQLVESGGGLVQAGGSLRLSCAASGSIFVYNAMGWYRQAPGKERELVAAITWSGGNTYYADSVKGRFTISRDNAKNTVYLEMNSLKPEDTAVSYCPAEFWQQGGWWEYDYWGQGTQVTVSS | low polyreactivity
QVQLVESGGGLVQAGGSLRLSCAASGLIYTPYAMGWYRQAPGKERELVAAINYGGSRTYYADSVKGRFTISRDNAKNTVYLQMNSLKPEDTAVYYCNKPGNYVWRRSWDFDYWGQGTQVTVSS | high polyreactivity
QVQLVESGGGLVQAGGSLRLSCAASGSTIIAYAMGWYRQAPGKERELVAAITTGDSTNYADSVKGRFTISRDNAKNTVYLQMNSLKPEDTAVYYCNADATDFHFLSEIGSSQEGDYWGQGTQVTVSS | low polyreactivity
QVQLVESGGGLVQAGGSLRLSCAASGITFWNNAKGWYRQAPGKEREFVATISSNGGRTYYADSVKGRFTISRDNAKNTVYLQMNSLKPEDNAVYYCNAARRAYGYNYWGQGTQVTVSS | low polyreactivity
QVQLVESGGGLVQAGGSLRLSCAASGRTFTGNAMGCYRQAPGKERELVAAISTSGTRTSYADSVKGRFTISRDNAKNTVYLQMNSLKPEDTAVYYCAALRKSLYRTYTYDYWGQGTQVTVSS | high polyreactivity
QVQLVESGGCLVQAGGSLRLICAASGGLFGTYTMGWYRQAPGKERELVAAIRSSSGRTYYADSVKGRFTISRDNAKNTVYLQMNILKPEDTAVYYCNAKYYGYRVGKYYPFGYWGQGTQVTVSS | high polyreactivity
QVQLVESGGGLVQAGGSLRLSCAASGFIFNAYAMGWYRQAPGKERELVAAITFRTTSTYYADSVKGRFTISRDNAKNTVYLQMNSLKPEDTAVYYCAALWIYSGWRYDYWGQGTQVTVSS | high polyreactivity
QVQLVESGGGLVQAGGSLRLSCAASGSTFGVYARGWYRQAPGKERELVAAISSSTGSTYYADSVKGRFTISRDNEKNTVYLQMNSLKPEDTAVYYCAAAGYGKVRGDYWGQGTQVTVSS | low polyreactivity
QVQLVESGGGLVQAGGSLRLSCAASGRIFYTYVMGWYIQAPGKERELVASISSSGGSTNYADSVKGRFTISRDNAKNTVYLQMNSLKPEDTAVYYCNKDYIHVSYREDYWGQGTQVTVSS | low polyreactivity
QVQLVESGGGLVQAGGSIRLSCAASGRIFYPYAMGWYRPAPGKDRELVAAIRRSGVDTYYADSVKGRFTISRDNAKQTVYLQMNSLKPEDTAVYYCAADPYWFFAHYDSWGQGTQVTVSS | low polyreactivity
QVQLVESGGGLVQAGGSLRLSCAASGNTIFHYAMGWYRQAPGKERELVAAISSADSTYYADSVKGRFTISRDNAKNTVYLQMNSLKPEDTAVYYCAKDRPNRPDLYDYWGQGTQVTLSS | low polyreactivity
QVQLVESGGGLVQAGGSLRLSCAASGRTFRVYAMGWYRQAPGKERELVAAISGRGGSTYYADSVKGRFSISRDNAKNTVYFQMNSLKPEVTAVYYCAKSNPYLRLCEGNYWGQGTQVTVSS | high polyreactivity
QVQLVESGGGLVQAGGSLRLSCAASGRIFGVNAMGWYRPSPGKERELVADISSGGSTNYADSVKGRFTISRDNAKNTVYLQMNSLKPEDTAVYYCNARFRFRYKFPSRNSWGQGTQVTVSS | high polyreactivity
QVQLVESGGGLVQAGGSLRLSCAASGIIFASYAMGWYRQAPGKERELVAAITWDGDSTYYADSVKGRFSISRDNAKNTVYLQRNSLKPEDTAVYYCAADGVYVGFYGYDYDYWGQGTQVTVSS | low polyreactivity
QVQLVESGGGLVQAGGSLRLSCAASGIIFRYNAMGLYRQAPGKERELVAAISWSGGYTYYADYVKGRFTISRDNAKNTVYFQMNSLKPEDTAVYYFNAVSLSRWGGYWGQGTQVTVSS | high polyreactivity
QDQHVESGGGLVQAGGSLRLSCAASGTIFCYYAMGWYRQAPGKERGLVASISWNGTSTYYADSVKGRFTISRDNSKNTVYLQMNCLNPEDTAVYYCNVRFNYRGTYDYWGQGTQVTVSS | low polyreactivity
QVQLVESGGGLVQAGGSLRLSCAASGSIFYYYVMGWYRQAPGKEREFVAAISWGGDSTYYADSVKGRFTISRDNAKNTVYLQMNSLKPEDTAVYYCAAVRYNSRVSTTPSEMYYWGQGTQVTVSS | low polyreactivity

From the nanobody polyreactivity screen of Harvey et al. (2022)
